Experiment [1] addresses T1, SecA (E. coli, UniProt P10408 1-901). As to the kind of experiment: cross-linking.
Experiment [2] concerns the target T1, SecA. As to the kind of experiment: cross-linking. The source holds these as a separate data set.

Read-outs that look alike come from different tables or passages of the source. No end group written: not given here. *: point of attachment. Biotin = O=C1N[C@H]2[C@H](CS[C@H]2CCCCC(=O)*)N1; MBP = 4-maleimido-benzophenone

T1 sequence (P10408 whole entry): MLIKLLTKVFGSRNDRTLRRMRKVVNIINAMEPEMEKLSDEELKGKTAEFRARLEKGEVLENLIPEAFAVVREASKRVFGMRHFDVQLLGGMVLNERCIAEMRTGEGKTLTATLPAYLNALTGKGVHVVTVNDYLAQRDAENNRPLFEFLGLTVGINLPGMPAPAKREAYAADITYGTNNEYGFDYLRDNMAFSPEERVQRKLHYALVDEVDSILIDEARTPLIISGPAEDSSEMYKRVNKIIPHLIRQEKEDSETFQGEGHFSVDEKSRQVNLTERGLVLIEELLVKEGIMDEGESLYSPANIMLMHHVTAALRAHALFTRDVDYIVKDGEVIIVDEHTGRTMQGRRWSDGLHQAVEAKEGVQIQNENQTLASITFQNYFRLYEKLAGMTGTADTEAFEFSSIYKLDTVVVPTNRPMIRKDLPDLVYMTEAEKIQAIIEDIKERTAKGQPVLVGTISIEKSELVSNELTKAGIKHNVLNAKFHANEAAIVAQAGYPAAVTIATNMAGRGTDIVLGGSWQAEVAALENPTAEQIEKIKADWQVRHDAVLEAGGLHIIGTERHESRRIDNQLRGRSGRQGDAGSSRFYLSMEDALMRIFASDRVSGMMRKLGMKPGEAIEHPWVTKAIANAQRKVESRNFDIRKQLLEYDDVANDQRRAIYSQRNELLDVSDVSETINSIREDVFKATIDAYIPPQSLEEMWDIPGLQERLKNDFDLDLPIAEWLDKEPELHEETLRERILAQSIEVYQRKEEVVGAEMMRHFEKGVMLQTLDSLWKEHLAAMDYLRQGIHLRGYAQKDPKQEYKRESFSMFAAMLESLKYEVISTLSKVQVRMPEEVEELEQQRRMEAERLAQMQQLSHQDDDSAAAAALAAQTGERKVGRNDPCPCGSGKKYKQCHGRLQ

On to Biotin-MMITLRKRRKLPLAVAVAAGVCSAQAMA [Biotinylated-KRRLamB19C signal peptide], for which the binding result with SecA [1] was “binds”.

For the molecule Biotin-MMITLRKRRKLPLAVAVAAGVC(MBP)SAQAMA [Bio-KRRLamB19C-MBP], the binding result with SecA [2] was “binds”.

The values are drawn from PMC3290997 (Biochemistry, 2012).
